“Also recorded” adds a separate entry of the source. Primed or numbered codes have the meaning given here. Ends that are not written are not given here. * marks the point of attachment. FITC = O=C1OC2(c3ccc(O)cc3Oc3cc(O)ccc32)c2ccc(NC(=S)*)cc21; FITC′ = fluorescein isothiocyanate label
What was measured:
[1] = molecular target: T1, human serum albumin (HSA) (Homo sapiens, UniProt P02768); assay: CPBA, detecting HSA; assay type: binding; details: FIG. 4
T1 construct: purchased Sigma-Aldrich A3782
Method: (§1) The stock solutions of HSA, ovalbumin, and BGG were prepared as 125 μg/ml in HBS buffer (10 mM Hepes-pH 7.0, and 0.15 M NaCl). Aliquots of 30 μl of each protein placed in microplate wells were 2-fold serial diluted in HBS buffer. After an aliquot of 30 μl of freshly prepared reagent-A (6 μM FITC-RD18/FITC-KY15, 100 mM Hepes-pH 7.5, and 2 mM EDTA) was added to each well, the microplate was incubated at 37° C. for 30 minutes. An aliquot of 60 μl of reagent B (0.5 M Hepes-pH 8.0, and 2 mM EDTA) was then added to each well to adjust pH to 8.0 for optimal fluorescence detection. To remove all the free fluorescent peptides, MD-Charcoal suspension (200 μl per well) was added and incubated at room temperature for 5 minutes. […] Background level of fluorescence intensities was measured by replacing protein samples with HBS buffer. The binding capacities of antigens for the fluorescent peptide probes were expressed as net fluorescence intensity per well. All experiments were performed at least in triplicates for each datum point and the data were presented as means±SD.

[2] = molecular target: T2, ovalbumin (Gallus gallus, UniProt P01012); assay: CPBA, control protein ovalbumin; assay type: binding, chicken; details: FIG. 4
T2 construct: ovalbumin (#A5503; from chicken egg white; 99% in purity); purchased Sigma-Aldrich A5503; host or cells: chicken egg white
T2 sequence (P01012 1-386): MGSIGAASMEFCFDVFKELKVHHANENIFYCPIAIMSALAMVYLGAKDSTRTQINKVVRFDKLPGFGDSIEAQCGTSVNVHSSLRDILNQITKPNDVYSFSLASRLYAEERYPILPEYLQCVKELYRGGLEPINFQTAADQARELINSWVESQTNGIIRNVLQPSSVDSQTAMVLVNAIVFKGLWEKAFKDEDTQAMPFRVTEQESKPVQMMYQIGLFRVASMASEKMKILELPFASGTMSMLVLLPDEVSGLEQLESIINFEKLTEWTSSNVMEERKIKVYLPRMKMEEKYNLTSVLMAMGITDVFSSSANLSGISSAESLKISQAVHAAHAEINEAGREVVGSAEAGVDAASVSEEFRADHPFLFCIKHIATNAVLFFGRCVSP
Method: as §1

[3] = system: bovine gamma globulin (BGG); assay: CPBA, control protein bovine gamma globulin; assay type: binding; details: FIG. 4
Method: as §1

[4] = system: anti-KY15 antibody; assay: Charcoal-sorbent peptide binding assay (CPBA), detecting anti-KY15 antibody; details: FIG. 2B, anti-KY15 rabbit antiserum
Method: (§2) Rabbit sera (30 μl/well) in microplate were 2-fold serially diluted in PBS buffer (137 mM NaCl, 2.7 mM KCl, 10 mM Na2HPO4, 2 mM KH2PO4, pH 7.4). After an aliquot of 30 μl of freshly prepared reagent-A (6 μM FITC-KY15, 100 mM Hepes-pH 7.5, and 2 mM EDTA) was added to each well, the microplate was incubated at 37° C. for 50 minutes. An aliquot of 60 μl of reagent B (0.5 M Hepes-pH 8.0, and 2 mM EDTA) was then added to each well to adjust pH to 8.0 for optimal fluorescence detection. To remove all the free fluorescent peptides, MD-Charcoal suspension (200 μl per well) was added, and the mixture was incubated at room temperature for 5 minutes. […] The binding capacity of antiserum for the fluorescent peptide probe was expressed as fluorescence intensity per well. All experiments were performed in triplicates for each datum point and the data were presented as means±SD.

[5] = system: anti-FF15 antiserum; assay: CPBA, control serum anti-FF15 antiserum; assay type: binding, rabbit; details: FIG. 2B
Method: as §2

[6] = CPBA, control non-immune rabbit serum; assay type: binding; details: FIG. 2B
Method: as §2

[7] = Capturing capacity and rate of MD-Charcoal for FITC-labeled molecules; details: for Remaining fluorescence intensities: 3 μM in 60 μl, Ex485/Em535, Gain 35, means±SD (n=3)
Method: Aliquots of FITC-labeled molecules (3 μM in 60 μl) mixed with equal volume of reagent B (2 mM EDTA, 0.5 M Hepes-pH 8.0) were treated with MD-Charcoal (200 μl/well) at room temperature for 1, 5, or 10 minutes.
Data were analyzed by one-way ANOVA and Tukey-HSD multiple range test, and presented as means±SD (n=3). Different successive superscript represents significant difference at p<0.05. The background value from empty well served as blank.

Substance | Binding of peptide probe with HSA [1] | Specificity for albumin compared to control proteins, ovalbumin and bovine gamma globulin [1] | Interaction of ovalbumin with peptide probe [2] | Interaction of bovine gamma globulin with peptide probe [3] | Binding of peptide probe with anti-KY15 antibody [4] | Affinity of anti-FF15 antiserum for the peptide probe [5] | Affinity of non-immune rabbit serum for the peptide probe [6] | Remaining fluorescence intensities (% of No Treatment) ([7]; MD-Charcoal treatment 1 min) | Remaining fluorescence intensities ([7]; MD-Charcoal treatment 1 min) | Remaining fluorescence intensities (% of No Treatment) ([7]; MD-Charcoal treatment 5 min) | Remaining fluorescence intensities ([7]; MD-Charcoal treatment 5 min) | Remaining fluorescence intensities (% of No Treatment) ([7]; MD-Charcoal treatment 10 min) | Remaining fluorescence intensities ([7]; MD-Charcoal treatment 10 min)
FITC-RD18: N-terminal FITC-labeled peptide RD18, amino acid sequence RLIEDICLPRWGCLWEDD; albumin-specific peptide probe ({FITC′}-RLIEDICLPRWGCLWEDD; cysteine pairing not given here) | linearly dose-dependent | highly specific | did not interact | did not interact | – | – | – | – | – | – | – | – | –
FITC-KY15: N-terminal FITC-labeled peptide KY15, amino acid sequence KSVGRDEREDITYTY; peptide probe for anti-KY15 antibody ({FITC}-KSVGRDEREDITYTY) | did not have affinity | – | – | – | specific binding; also recorded: can be detected | did not show affinity | did not show affinity | (0.6%) | 1,320 ± 410^2b | (0.5%) | 1,037 ± 33^2b | (0.4%) | 943 ± 29^2b

Source: US8133683B2, “Methods for detecting biomolecules in a sample” (Taipei Medical University, priority 2009, dated 2012)
